Source: paper PMC5127643, “Dynamic control of Hsf1 during heat shock by a chaperone switch and phosphorylation” (eLife, 2016)

T1: 3xFLAG-Hsf1 (S. cerevisiae, UniProt P10961 1-833)
T1 construct: The text prints 3xFLAG-Hsf1 and the legend prints rHsf1-3xFLAG, so the tag end is left open; also called rHsf1-3xFLAG; rHsf1; source: construct not described in the methods
T1 sequence (looked up): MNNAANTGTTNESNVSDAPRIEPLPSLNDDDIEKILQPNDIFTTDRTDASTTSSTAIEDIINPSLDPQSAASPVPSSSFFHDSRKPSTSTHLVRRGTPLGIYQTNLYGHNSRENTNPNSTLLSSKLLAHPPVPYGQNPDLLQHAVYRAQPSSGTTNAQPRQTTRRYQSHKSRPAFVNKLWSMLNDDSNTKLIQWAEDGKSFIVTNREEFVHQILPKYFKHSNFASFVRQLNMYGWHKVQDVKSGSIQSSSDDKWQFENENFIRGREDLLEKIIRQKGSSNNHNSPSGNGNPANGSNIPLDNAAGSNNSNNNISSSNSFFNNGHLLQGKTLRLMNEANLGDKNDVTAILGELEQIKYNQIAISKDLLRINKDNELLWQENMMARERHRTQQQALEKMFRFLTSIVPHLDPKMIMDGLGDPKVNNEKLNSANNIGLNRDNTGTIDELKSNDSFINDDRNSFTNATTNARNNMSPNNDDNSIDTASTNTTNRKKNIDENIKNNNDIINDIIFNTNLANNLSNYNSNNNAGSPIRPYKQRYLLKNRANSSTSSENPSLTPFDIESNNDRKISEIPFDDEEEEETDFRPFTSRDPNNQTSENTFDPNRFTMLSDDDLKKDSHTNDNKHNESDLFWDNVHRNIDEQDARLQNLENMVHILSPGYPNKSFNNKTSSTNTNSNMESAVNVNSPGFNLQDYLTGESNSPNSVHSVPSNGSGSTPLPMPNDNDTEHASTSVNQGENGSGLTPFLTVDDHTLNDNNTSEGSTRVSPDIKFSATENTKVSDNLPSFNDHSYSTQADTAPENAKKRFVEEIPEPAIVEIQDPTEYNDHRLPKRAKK

T2: Hsf1-6xHIS phosphorylated in vitro by casein kinase II (S. cerevisiae, UniProt P10961 1-833, phosphorylated by casein kinase II (mobility shift); sites not stated)
T2 construct: Full-length wild type HSF1 cloned into pET32b with a C-terminal 6x-HIS tag; also called rHsf1 pre-incubated with ATP and active CKII; phosphorylated Hsf1; source: E. coli BL21(DE3), purified (Ni-NTA agarose), then phosphorylated in vitro with casein kinase II (NEB); not shown: 6xHIS, C-terminal, kept
T2 sequence (looked up): T1 sequence (looked up)

T3: Hsf1-6xHIS (S. cerevisiae, UniProt P10961 1-833)
T3 construct: Full-length wild type HSF1 cloned into pET32b with a C-terminal 6x-HIS tag; pET32b normally adds N-terminal thioredoxin, His and S tags; Plasmids are in Supplementary file 2; also called rHsf1; recombinant Hsf1; source: E. coli BL21(DE3), purified (Ni-NTA agarose, imidazole elution); not shown: 6xHIS, C-terminal, kept
T3 sequence (looked up): T1 sequence (looked up)

B1: recombinant Ssa2 (HIS-tagged, tags reversed) (natural protein)
chain: not shown
notes: also called rSsa2; source: construct not described in the methods
B2: 6xHIS-3xFLAG-Ssa2 (natural protein)
chain: not shown
notes: Full length SSA2 cloned into pET32b with an N-terminal 6xHIS-3xFLAG tag; pET32b normally adds N-terminal thioredoxin, His and S tags; Plasmids are in Supplementary file 2; also called FLAG-rSsa2; 3xFLAG-rSsa2; source: E. coli BL21(DE3), purified (Ni-NTA agarose, imidazole elution); not shown: 6xHIS, N-terminal, kept; 3xFLAG, N-terminal, kept

How the values were obtained:
Conditions in all cases: both partners purified
Aβ42 peptide = molecular target: T4, Aβ42 peptide (UniProt P05067 672-713); test: co-IP; anti-FLAG IP of recombinant proteins with rHsf1-3xFLAG as bait, in the presence of five-fold molar excess (25 µM) of Aβ42 peptide as competitor
T4 construct: also called hydrophobic peptide

3xFLAG-Hsf1 = molecular target: T1, 3xFLAG-Hsf1; test: co-IP; anti-FLAG IP of recombinant proteins with rHsf1-3xFLAG as bait, Western blot anti-HIS for rSsa2; IP buffer alone or with 1 mM ATP
[1] = molecular target: T2, Hsf1-6xHIS phosphorylated in vitro by …; test: co-IP; anti-FLAG IP of recombinant proteins with 3xFLAG-rSsa2 as bait; rHsf1 pre-incubated with ATP alone, ATP and active CKII, or ATP and boiled CKII; Western blot anti-HIS for rHsf1
Hsf1-6xHIS = molecular target: T3, Hsf1-6xHIS; test: as above

T4 sequence (P05067 672-713): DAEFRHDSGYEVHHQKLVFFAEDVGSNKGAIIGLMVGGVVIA

Binder	binding result (Aβ42 peptide)	binding result (3xFLAG-Hsf1)	binding result [1]	binding result (Hsf1-6xHIS)
B1	binds	binds	–	–
B2	–	–	binds	binds
